The target of test [1] is recombinant human neonatal Fc receptor (rhFcRn) (human) (UniProt P55899). In words: SPR. In general terms: SPR reads the build-up and loss of mass on a sensor chip optically.
Test [2] concerns the target recombinant human FcγRIIIa-Phe (human) (UniProt P08637). Nature of the test: SPR.

recombinant human neonatal Fc receptor (rhFcRn) (human), sequence (P55899 whole entry, looked up, tested part not stated): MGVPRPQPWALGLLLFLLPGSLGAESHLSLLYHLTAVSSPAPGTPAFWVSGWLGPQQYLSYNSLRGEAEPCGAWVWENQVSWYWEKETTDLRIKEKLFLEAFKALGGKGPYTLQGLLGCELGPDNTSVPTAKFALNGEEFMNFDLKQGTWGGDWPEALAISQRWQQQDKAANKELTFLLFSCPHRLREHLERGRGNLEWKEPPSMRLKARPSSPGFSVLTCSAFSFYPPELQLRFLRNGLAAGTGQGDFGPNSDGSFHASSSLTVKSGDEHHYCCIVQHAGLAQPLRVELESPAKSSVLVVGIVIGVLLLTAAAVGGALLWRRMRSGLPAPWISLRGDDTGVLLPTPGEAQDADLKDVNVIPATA
recombinant human FcγRIIIa-Phe (human), sequence (P08637 17-208): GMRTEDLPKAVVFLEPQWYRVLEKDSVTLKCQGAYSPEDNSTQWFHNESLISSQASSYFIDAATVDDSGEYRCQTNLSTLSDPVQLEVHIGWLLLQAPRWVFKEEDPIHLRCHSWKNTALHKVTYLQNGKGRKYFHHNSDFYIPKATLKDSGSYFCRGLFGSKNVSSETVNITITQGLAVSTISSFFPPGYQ

As usually defined, the Kd is a measure of binding affinity in units of concentration. The term kon denotes a measure of how fast the partners come together. Consider “wild type IgG1 (modified ZRC-3308 mAb with wild type Fc) (antibody)”, for which, in test [1], the Kd stood at 195 nM and the kon is 986000 M⁻¹ s⁻¹. Besides, in test [2], the Kd amounted to 1620 nM.

Values taken from PMC8706527.
